In the assay the target is recombinant Xenopus TACC3/maskin (TACC3-WT), full length, His6-tagged (Xenopus laevis) (UniProt Q9PTG8). Put plainly: sucrose density gradient centrifugation + SEC.
recombinant Xenopus TACC3/maskin (TACC3-WT), full length, His6-tagged (Xenopus laevis), sequence (Q9PTG8 whole entry): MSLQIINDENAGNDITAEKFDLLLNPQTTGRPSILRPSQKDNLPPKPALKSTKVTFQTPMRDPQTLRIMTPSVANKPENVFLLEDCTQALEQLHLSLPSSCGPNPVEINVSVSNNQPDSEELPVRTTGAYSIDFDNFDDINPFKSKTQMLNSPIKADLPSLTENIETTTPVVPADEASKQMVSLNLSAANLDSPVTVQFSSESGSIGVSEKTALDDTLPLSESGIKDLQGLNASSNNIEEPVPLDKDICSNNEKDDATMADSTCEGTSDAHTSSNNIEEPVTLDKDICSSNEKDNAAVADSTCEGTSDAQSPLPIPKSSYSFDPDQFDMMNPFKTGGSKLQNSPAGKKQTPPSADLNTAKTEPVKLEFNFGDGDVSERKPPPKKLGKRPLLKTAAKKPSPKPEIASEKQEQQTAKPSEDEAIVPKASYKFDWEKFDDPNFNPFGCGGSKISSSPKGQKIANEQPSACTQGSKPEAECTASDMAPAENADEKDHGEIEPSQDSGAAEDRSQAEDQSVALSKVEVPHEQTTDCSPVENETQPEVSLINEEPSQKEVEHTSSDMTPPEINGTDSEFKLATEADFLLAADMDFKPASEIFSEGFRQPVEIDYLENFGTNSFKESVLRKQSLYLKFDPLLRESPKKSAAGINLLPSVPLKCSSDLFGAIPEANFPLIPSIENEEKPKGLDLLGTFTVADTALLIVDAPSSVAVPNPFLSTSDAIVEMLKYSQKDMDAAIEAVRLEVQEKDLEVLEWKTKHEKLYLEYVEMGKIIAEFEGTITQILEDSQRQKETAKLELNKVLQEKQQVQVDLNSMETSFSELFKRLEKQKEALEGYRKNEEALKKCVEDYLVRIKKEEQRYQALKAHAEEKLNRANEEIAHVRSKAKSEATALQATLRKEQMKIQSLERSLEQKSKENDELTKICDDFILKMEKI

By stoichiometry N is commonly meant a count of units in the complex or per binding partner. Turning to recombinant XMAP215, Q9PT63 1-2065, the stoichiometry N is 1.
